Measured values reported in PMC10616557 (iScience, 2023).

Biological target: the molecule itself
Test: cross-linking

MGNASFGSKEQKLLKRLRLLPALLILRAFKPHRK (peptide, UniProt O95661 1-34, looked up) [DIRAS3 N-terminal extension peptide, wild type (NTEwt)]
stoichiometry N: 2

MANASFGSKEQKLLKRLRLLPALLILRAFKPHRK (peptide, UniProt O95661 1-34, looked up) [DIRAS3 NTE peptide with mutation of the glycine myristoylation site (NTEG2A)]
stoichiometry N: 2
